The data set has as its system MS2 coat protein. The data set is described as follows: apparent KD of MS2 coat protein; higher = weaker reporter binding. Conditions: Eterna round: R107. The method, then:
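RNA-MaP round R107: designed RNA switches with theophylline, tryptophan, arginine or FMN aptamers are transcribed on-chip within common flanks. They are titrated with SNAP-549-labelled MS2 coat protein in RNA-MaP buffer (100 mM Tris pH 7.5, 80 mM KCl, 4 mM MgCl2), without ligand or with the indicated ligand. Median apparent KD per design.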

Setting [1] is: input ligand: theophylline 20 uM.
[2] abbreviates: input ligand: theophylline 2 mM.
Where [3] appears, read: input ligand: tryptophan 2.4 mM.

Turning to “AUGCUGACAAGGAGGUGUUCCUCAGCUGAUACCAGCCUGGAAACAGGCCCUUGGCAGCAGCACAUGAGGAUCACCCAUGUAAUAA [(T)'-(M)'-(T1)-(T2)-(M1)-(M2)_Design1(Mismatches)]”, the “apparent KD of MS2 coat protein” value (input ligand: arginine 13.2 mM) is 56.5 nM; the “apparent KD of MS2 coat protein” value (input ligand: none) turned out to be 27 nM; the “apparent KD of MS2 coat protein” value under setting [1] amounted to 517 nM; the “apparent KD of MS2 coat protein” value under setting [2] stood at 12.4 nM; the “apparent KD of MS2 coat protein” value under setting [3] is 33.4 nM.
The corresponding values for “GCACCAGGUACGGAUACCAGACGCUGCCGAUUGGGUGGACAUGAGGAUCACCCAUGUAAUGUCCCUUGGCAGCCGUACCUGGUGC [#17 Exclusion-TheophyllineB]” are 13.5 nM, 13.8 nM, 38.8 nM, 200 nM and 17.8 nM.
For “GUGAGCGCCGAACAUCGCUGGUCCUCUAUCCGAGGACCGGUACGGCCGCCACUCGACAUGAGGAUCACCCAUGUUGGCACUGGCG [Inbemama]”, the “apparent KD of MS2 coat protein” value reads like this: (input ligand: arginine 13.2 mM) 9.22 nM; under setting [1], 13.4 nM; under setting [2], 11.7 nM.
Consider “AAAAUCCUACCUGAGGAUCACCCAGGUGAAGGAGCGCCCGAAAGGGCAGGUAGGUCGCACCUGAGGAUCACCCUGGUAACCUAAA [ArgEX 11 #DoubleMS2 #OpenEnded #AlternativeMS2]”, for which the “apparent KD of MS2 coat protein” value (input ligand: arginine 13.2 mM) turned out to be 28.1 nM; the “apparent KD of MS2 coat protein” value (input ligand: none) stood at 48 nM; the “apparent KD of MS2 coat protein” value under setting [1] amounted to 69 nM; the “apparent KD of MS2 coat protein” value under setting [2] worked out at 51.7 nM; the “apparent KD of MS2 coat protein” value under setting [3] was 38.6 nM.
“GCGUUGGUCGGAAGGAGCGACAUGAGGAUCACCCAUGUCUCCCGUUAUGGGAGUUCCUUAGGUCAGGUAGGUCGCCGACUGACGC [#1 Exclusion - Arginine B Attempt #20 (Inspired by Omei)]”: the “apparent KD of MS2 coat protein” value is, setting by setting: (input ligand: arginine 13.2 mM) 96.1 nM; (input ligand: none) 209 nM; under setting [1], 193 nM; under setting [2], 150 nM; under setting [3], 143 nM.
For the sequence “GCACCAGGUACGGAUACCAGCUGCCACAGUUACAUGAGGAUCACCCAUGUGAUAAAGUGUAGCCCUUGGCAGCUGUACCUGGUGC [SSThB NP+V+V2 #6 +-Same Structure]”, the “apparent KD of MS2 coat protein” value is 93.2 nM (input ligand: arginine 13.2 mM), 69.1 nM under setting [1] and 125 nM under setting [3].
With “CGGUAGGUAGGUCGAUAUCUACCCGUAGAAGGAGCGUAAGAAAAUACAGGUAGGUCGCUACGGUACAUGAGCAUCAGCCAUGUCC [SSArg A #13 Alt-Ms2]”, the “apparent KD of MS2 coat protein” value by setting is: (input ligand: arginine 13.2 mM) 10.5 nM; (input ligand: none) 11.7 nM; under setting [1], 15.2 nM; under setting [2], 11.7 nM; under setting [3], 13.1 nM.
Consider “GCUAGUGGCAGAAGGAGCGAGGCUACAUACGGGUACAUGAGGAUCACCCAUGUGGUGUGUACUCAGGUAGGUCGCUGCCACUAGC [SSAB NP+V+V2 #13 Same Structure]”, for which the “apparent KD of MS2 coat protein” value was determined as 193 nM (input ligand: arginine 13.2 mM); 921 nM (input ligand: none); 754 nM under setting [1]; 977 nM under setting [2]; 467 nM under setting [3].
Regarding “ACCUGCGUUUGAUAAAAUCAGACGCAGGUUCGAGGACCGGUACGGCCGCCACUCGGACAUGAGGAUCACCCAUGUUUGACAUGGG [#05 Exclusion Tryptophan A]”, the “apparent KD of MS2 coat protein” value came out at 168 nM (input ligand: arginine 13.2 mM), 301 nM under setting [1] and 746 nM under setting [2].
For “GCUAGUGGCAGAAGGAGCGAGGCGACAUACGGGUACAUGAGGAUCACCCAUGUGGUGUGUCCUCAGGUAGGUCGCUGCCACUAGC [SSAB NP+V+V2 #12]”, the “apparent KD of MS2 coat protein” value stood at 134 nM (input ligand: arginine 13.2 mM); 74.7 nM (input ligand: none); 152 nM under setting [1]; 145 nM under setting [2]; 521 nM under setting [3].
The corresponding values for “UUCAGCUAGUCGGCCGCCACUACUUGAGGAUCACCCAAGUAGGUCCACACUGCUUCGGCAGUGAGUAGGACCGGGACUAGCUGAG” are 13.7 nM, 14.7 nM, 13.5 nM, 11.5 nM and 35.3 nM.
With “GGCCGUGCGAGCGCUCGCGUGGCCGCGGAUACCAGCGAGGUCCAUCGCCCUUGGCAGCCGAACAUGAGGAUCACCCAUGUCGGUA [#1 Same State - Theophylline A Attempt #14 (HarryS)]”, the “apparent KD of MS2 coat protein” value reads like this: (input ligand: arginine 13.2 mM) 8.93 nM; (input ligand: none) 11 nM; under setting [1], 15.2 nM; under setting [2], 17.3 nM; under setting [3], 9.77 nM.
Regarding “GGAGGUGAGAGAAGGAGCGGAAGUUUCGUUACAACAUGAGGAUCACCCAUGUAACGUUUAGUCCAGGUAGGUCGCUCUCGGGCGG [jbbgmullin]”, the “apparent KD of MS2 coat protein” value by setting is: (input ligand: arginine 13.2 mM) 19.2 nM; (input ligand: none) 16.3 nM; under setting [1], 25.2 nM; under setting [2], 30.7 nM; under setting [3], 26.9 nM.
Regarding “GCUACAUGAGGAUCACCCAUGUAUGCGAGCCGAGGACCGGUACGGCCGCCACUCGCUUAACAUGAGGAUCACCCAUGUUGCUCGG [SSTA DOUBLE!!! :-D #17]”, the “apparent KD of MS2 coat protein” value stood at 38.9 nM (input ligand: arginine 13.2 mM), 77.8 nM under setting [1] and 55.1 nM under setting [2].
As to “UUUUUCGCGGGUGAUACCAGCAAAGCUGUACUGGUCUGGUACAUGAGGAUCACCCAUGUUUGCCCUUGGCAGCGCUCGGGAGAAG [#21 Exclusion-TheophyllineB]”, the “apparent KD of MS2 coat protein” value is, setting by setting: (input ligand: arginine 13.2 mM) 27.7 nM; under setting [1], 47.9 nM; under setting [3], 28.6 nM.
“CGUAUUGGAAACAGUACGAGUGAUCCGGUCCGAGGACCGGUACGGCCGCCACUCGAAAUAAAUAAACAUGAGGAUCACCCAUGUA [Ex Tryptophan A 9]”: the “apparent KD of MS2 coat protein” value by setting is: (input ligand: arginine 13.2 mM) 14.1 nM; under setting [1], 18.2 nM; under setting [2], 21.9 nM.
For “GUUAUAUGAAAACAUAUAACAGUGGGUGAACGAGGACCGGUACGGCCGCCACUCGGACAUGAGGAUCACCCAUGUCCAUGUGAAA [AstrosExyTryA#6]”, in that order: 15.2 nM, 17.4 nM and 22 nM.

(Values after the supplement of paper PMC9170038.)
